Data: PMC11284791, “Ribosome External Electric Field Regulates Metabolic Enzyme Activity: The RAMBO Effect” (The Journal of Physical Chemistry. B, 2024)

Target: the molecule itself
Test: cross-linking; His-TPI alone with 2 mM BS(PEG)5; 10 mM sodium phosphate pH 7.5, 100 mM NaCl, 10 mM MgCl2, RT, 30 min; SDS-PAGE

B1: C-terminal His-tagged triosephosphate isomerase from G. gallus (enzyme, UniProt P00940 1-248, looked up)
chain: MAPRKFFVGGNWKMNGDKKSLGELIHTLNGAKLSADTEVVCGAPSIYLDFARQKLDAKIGVAAQNCYKVPKGAFTGEISPAMIKDIGAAWVILGHSERRHVFGESDELIGQKVAHALAEGLGVIACIGEKLDEREAGITEKVVFEQTKAIADNVKDWSKVVLAYEPVWAIGTGKTATPQQAQEVHEKLRGWLKSHVSDAVAQSTRIIYGGSVTGGNCKELASQHDVDGFLVGGASLKPEFVDIINAKH
notes: Triosephosphate isomerase, G. gallus, 248 residues, as m1, with a C-terminal His tag; also called His-TPI; His-tagged TPI; source: E. coli BL21 (DE3), pET-21a(+)-His-TPI, purified (Ni-NTA); not shown: His tag, C-terminal, kept
stoichiometry N: 2
